US10308712B2, “Antibodies that bind human cannabinoid 1 (CB1) receptor” (priority 2014, dated 2019)
Substitutions are numbered along the chain they refer to.

B1: 36E12B6C2: hybridoma-derived anti-CB1 antibody; HC variable SEQ ID NO: 18, LC variable SEQ ID NO: 22 (antibody, listed as Mus sp., V domains shown)
VH: QVQLQQSGAELVRPGSSVKISCKASGYEFSYYWMNWVKQRPGQGLQWIGQIYPGDGDTNYNGKFKGKATLTADKSSSTAYMHLTSLTSEDSAVYFCARSGGNPFAFWGQGTLVTVSA
VL: DIQMTQTSSSLSASLGDRVTFSCRASQDISNYLNWYQQKPDGTVKLLIYYTSRLHSGVTSRFRGSGSGTDYSLTISNLEQEDVATYFCQQGHTLPWSFGGGTKLEIK
B2: PA2LR3-P4G10: CB1 receptor binding IgG clone (antibody, V domains shown)
VH: B1 VH with Q1E, S7F, E28A, Q46E, H82Q, T84S, G100H, P103Y, F106Y
VL: DIVLTQSPAIMSASLGERVTMTCTASSSVSSSYLHWYQQKPGSSPKLWIYSTSNLASGVPARFSGSGSGTSYSLTISSMEAEDAATYYCQQWSSNPLTFGAGTKLELK
modifications: PA2LR3-P4G10 Heavy Chain Variable region; PA2LR3-P4G10 Light Chain Variable region
B3: PA2LR3-P6B12: HC variable SEQ ID NO: 50, LC variable SEQ ID NO: 54; potential allosteric modulator (antibody, V domains shown)
VH: B1 VH with Q1E, E28A, Q46E, H82Q, T84S, G100H, P103Y, F106Y
VL: B2 VL with D1Q, Q90H, W92Y, S93H, S94R, N95S, T98A
modifications: PA2LR3-P6B12 Heavy chain variable region; PA2LR3-P6B12 Light chain variable region
B4: PA2LR3-P4C6: CB1 receptor binding IgG clone (antibody, V domains shown)
VH: B1 VH with Q1E, E28A, Q46E, H82Q, T84S, G100H, P103Y, A105P, F106Y
VL: B2 VL with L4I, M11V, N95Y, L107I
modifications: PA2LR3-P4C6 Heavy Chain Variable region; PA2LR3-P4C6 Light Chain Variable region
B5: PA2LR3-P3A8: CB1 antibody (antibody, V domains shown)
VH: B1 VH with Q1E, E28A, Q46E, F64V, H82Q, T84S, G100H, P103Y, F106Y
VL: B2 VL with L4M
modifications: PA2LR3-P3A8 Heavy Chain Variable Region; PA2LR3-P3A8 Light Chain Variable Region
notes: CB1 antibody
B6: PA2LR3-P3F8: CB1 antibody (antibody, V domains shown)
VH: EVQLQQSGAELVRPGSSVKISCKASGYAFSNYWMNWVKQRPGQGLEWIGQIYPGDGDTNYNGNFKGKATLTADKSSSTAYMQLSSLTSEDSAVYFCARSHGNYFPYWGQGTLVTVSA
VL: B2 VL with N95Y
modifications: PA2LR3-P3F8 Heavy Chain Variable Region; PA2LR3-P3F8 Light Chain Variable Region
notes: CB1 antibody
B7: PA2LR3-P4B1: HC variable SEQ ID NO: 42, LC variable SEQ ID NO: 46; potential agonist IgG (antibody, V domains shown)
VH: B6 VH with Y27F, Y60F, N63K, K67R, T69I, K74I, S77N
VL: B2 VL with D1Q, Q90H, W92Y, S93H, S94R, N95S
modifications: PA2LR3-P4B1 Heavy chain variable region; PA2LR3-P4B1 Light chain variable region
B8: PA2LR3-P4B5: CB1 antibody; HC variable SEQ ID NO: 26, LC variable SEQ ID NO: 30 (antibody, V domains shown)
VH: B6 VH with N31Y, N61S, N63R, M81I
VL: B2 VL with T5N, Q90H, W92Y, S93H, S94R, N95S, L107I
modifications: PA2LR3- P4B5 Heavy chain variable region; PA2LR3- P4B5 Light chain variable region
B9: PA2LR3-P5E7: CB1 antibody (antibody, V domains shown)
VH: B6 VH with Y60F, N63K, K67R, T69I, K74I, S77N
VL: DIVLTQSPTTMAASPGEKITITCSASSSISSNYLHWYQQKPGFSPKLLIYRTSTLASGVPARFSGSGSGTSYSLTISSMEAEDAATYYCHQYHRSPHTFGSGTKLEIK
modifications: PA2LR3-P5E7 Heavy Chain Variable region; PA2LR3-P5E7 Light Chain Variable region
notes: CB1 antibody
B10: PA2LR3-P6G7: HC variable SEQ ID NO: 58, LC variable SEQ ID NO: 62; potential agonist IgG (antibody, V domains shown)
VH: B6 VH with Y27F, Y60F, N63K, K67R, T69I, K74I, S77N
VL: B2 VL with Q90H, W92H, S93H, S94R, N95S, L97P
modifications: PA2LR3-P6G7 Heavy chain variable region; PA2LR3-P6G7 Light chain variable region

Columns and labels:
[1] = target: T1, human CB1 expressing TRex-CHO cells (Homo sapiens, UniProt P21554); type: cell-based
T1 construct: pcDNA4/TO native full length human CB1 receptor construct was transfected into tetracycline inducible system Trex-CHO and Trex-293 cells; expressed in transfected cells

Mouse CB1 = Mouse CB1 (Mus musculus, UniProt P47746); experiment: Flow cytometry (FACS) cross-reactivity, mouse CB1 cells; settings: in words
human CB2 = human CB2 (Homo sapiens, UniProt P34972); experiment: Flow cytometry (FACS) selectivity, human CB2 cells; settings: in words
[2] = test system: Trex-CHO CB1 receptor cells, WIN55,212 induced ERK phosphorylation; experiment: ERK activation assay (western blot); settings: IgG 300 nM, WIN55,212 100 nM
TRex CHO parental cells = experiment: Flow cytometry (FACS) binding, parental cells; settings: in words
CB1 TRex-CHO cells = target: T2, CB1 TRex-CHO cells (Homo sapiens, UniProt P21554); type: cell-based; settings: antibody 300 nM, 1 hour
T2 construct: pcDNA4/TO native full length human CB1 receptor construct was transfected into tetracycline inducible system Trex-CHO and Trex-293 cells; expressed in transfected cells
T2 sequence (P21554 whole entry): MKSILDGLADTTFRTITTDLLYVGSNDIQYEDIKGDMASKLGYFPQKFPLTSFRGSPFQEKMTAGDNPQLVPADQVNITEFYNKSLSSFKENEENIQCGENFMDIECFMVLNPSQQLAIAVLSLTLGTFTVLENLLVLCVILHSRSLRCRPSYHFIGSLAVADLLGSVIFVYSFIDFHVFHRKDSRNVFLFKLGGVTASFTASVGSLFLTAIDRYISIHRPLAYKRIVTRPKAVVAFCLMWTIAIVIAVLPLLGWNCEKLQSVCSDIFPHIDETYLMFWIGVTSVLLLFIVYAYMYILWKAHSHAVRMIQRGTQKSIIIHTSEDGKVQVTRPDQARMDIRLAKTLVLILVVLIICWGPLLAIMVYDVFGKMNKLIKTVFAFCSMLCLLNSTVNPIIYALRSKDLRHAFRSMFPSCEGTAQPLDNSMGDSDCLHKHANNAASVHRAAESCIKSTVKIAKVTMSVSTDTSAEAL

T1 sequence (P21554 whole entry): as above
Sequence of Mouse CB1 (P47746 whole entry): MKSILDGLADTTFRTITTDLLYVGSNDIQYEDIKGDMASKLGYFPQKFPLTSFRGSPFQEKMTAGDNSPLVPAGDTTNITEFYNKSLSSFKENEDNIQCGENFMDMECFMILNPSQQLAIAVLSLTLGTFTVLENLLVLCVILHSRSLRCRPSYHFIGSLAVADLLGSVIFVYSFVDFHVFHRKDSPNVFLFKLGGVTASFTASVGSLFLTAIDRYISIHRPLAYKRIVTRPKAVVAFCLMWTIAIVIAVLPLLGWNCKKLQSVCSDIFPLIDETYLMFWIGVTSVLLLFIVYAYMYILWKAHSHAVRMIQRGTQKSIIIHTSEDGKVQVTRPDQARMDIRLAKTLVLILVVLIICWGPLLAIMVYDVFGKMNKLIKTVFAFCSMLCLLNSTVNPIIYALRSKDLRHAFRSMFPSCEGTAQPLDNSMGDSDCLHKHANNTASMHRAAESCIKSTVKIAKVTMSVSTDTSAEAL
Sequence of human CB2 (P34972 whole entry): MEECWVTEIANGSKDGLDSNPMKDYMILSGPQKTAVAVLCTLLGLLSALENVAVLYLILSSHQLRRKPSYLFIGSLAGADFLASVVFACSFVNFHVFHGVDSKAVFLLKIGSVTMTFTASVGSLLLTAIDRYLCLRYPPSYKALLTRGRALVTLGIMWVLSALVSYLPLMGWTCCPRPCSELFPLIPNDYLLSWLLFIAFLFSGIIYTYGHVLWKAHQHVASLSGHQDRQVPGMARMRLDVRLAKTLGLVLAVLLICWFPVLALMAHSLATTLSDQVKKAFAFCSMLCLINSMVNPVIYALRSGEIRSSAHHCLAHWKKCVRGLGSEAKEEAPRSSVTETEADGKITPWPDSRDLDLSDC

Molecule	induction of CB1 receptor internalization by the substance alone (CB1 TRex-CHO cells)	further results
Cc1c(C(=O)NN2CCS(=O)(=O)CC2)nn(-c2ccc(Cl)cc2Cl)c1-c1ccc(C#CCCC#N)cc1 [AM6545, reference compound]		effect on cAMP levels ([1]; 1.5 μM or 5 μM forskolin stimulated TRex-CHO CB1 cells, no exogenous agonist): did not affect cAMP levels
B1		cross-activity / cross-reactivity Mouse CB1 (Mouse CB1): do not have cross-activity; cross-activity / selectivity human CB2 (human CB2): do not have cross-activity; blocking of WIN55,212 induced ERK phosphorylation [2]: blocked; mechanism (inverse agonist or neutral antagonist) ([1]; 5 μM forskolin, no agonist (Example 11)): inverse agonists; binding to parental TRex CHO (TRex CHO parental cells): not parental TRex CHO
B2	do not induce	
B3	do not induce	
B4	do not induce	
B5	do not induce	
B6	do not induce	
B7	do not induce	
B8	do not induce	
B9	do not induce	
B10	do not induce	
